According to US20120135923A1, “Use of Melanocortins to Treat Dyslipidemia” (IPSEN PHARMA, S.A.S., priority 2009, published 2012):
Bridge positions count the residues as written; N and C are the ends. Square brackets hold non-standard residues; d marks the D form. Ends that are not written are not given here. Bip = N[C@@H](Cc1ccc(-c2ccccc2)cc1)C(=O)O; 1Nal = N[C@@H](Cc1cccc2ccccc12)C(=O)O; 2Nal = N[C@@H](Cc1ccc2ccccc2c1)C(=O)O; d2Nal = N[C@H](Cc1ccc2ccccc2c1)C(=O)O; hArg = N=C(N)NCCCC[C@H](N)C(=O)O; Pen = CC(C)(S)[C@H](N)C(=O)O; Nle = CCCC[C@H](N)C(=O)O; Ahx = NCCCCCC(=O)O; GABA = NCCCC(=O)O; βAla = NCCC(=O)O

Assays:
[1] = target: hMC5-R (human) (UniProt P33032); test: cell-based or functional assay
hMC5-R (human), sequence (P33032 whole entry): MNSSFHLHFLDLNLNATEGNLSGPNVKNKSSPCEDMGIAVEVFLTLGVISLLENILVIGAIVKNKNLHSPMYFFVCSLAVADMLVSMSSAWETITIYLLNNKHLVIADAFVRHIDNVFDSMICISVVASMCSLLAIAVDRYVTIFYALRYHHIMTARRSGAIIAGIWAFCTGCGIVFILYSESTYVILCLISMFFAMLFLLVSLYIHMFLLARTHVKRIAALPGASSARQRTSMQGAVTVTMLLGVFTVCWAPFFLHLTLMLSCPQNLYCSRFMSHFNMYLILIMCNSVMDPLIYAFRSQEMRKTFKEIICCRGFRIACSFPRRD

[2] = target: hMC4-R (human) (UniProt P32245); test: cell-based or functional assay
hMC4-R (human), sequence (P32245 whole entry): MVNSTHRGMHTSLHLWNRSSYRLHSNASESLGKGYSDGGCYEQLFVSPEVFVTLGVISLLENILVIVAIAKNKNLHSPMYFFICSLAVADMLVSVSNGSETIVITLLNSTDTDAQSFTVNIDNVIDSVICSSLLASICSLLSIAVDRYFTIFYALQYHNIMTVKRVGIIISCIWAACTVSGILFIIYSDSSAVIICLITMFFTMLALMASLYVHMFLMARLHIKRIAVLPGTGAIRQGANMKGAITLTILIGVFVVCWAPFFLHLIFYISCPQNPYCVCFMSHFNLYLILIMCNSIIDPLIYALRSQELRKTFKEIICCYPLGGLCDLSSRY

[3] = target: hMC1-R (human) (UniProt Q01726); test: cell-based or functional assay
hMC1-R (human), sequence (Q01726 whole entry): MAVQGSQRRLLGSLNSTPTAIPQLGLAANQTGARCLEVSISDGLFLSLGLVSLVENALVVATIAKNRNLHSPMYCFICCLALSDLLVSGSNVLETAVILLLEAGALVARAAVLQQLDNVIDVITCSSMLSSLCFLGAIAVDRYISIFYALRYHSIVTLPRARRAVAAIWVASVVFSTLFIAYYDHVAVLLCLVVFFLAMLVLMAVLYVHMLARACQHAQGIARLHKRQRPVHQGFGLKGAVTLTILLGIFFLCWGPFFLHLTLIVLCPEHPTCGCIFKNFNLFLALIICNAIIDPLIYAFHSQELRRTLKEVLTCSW

[4] = target: hMC3-R (human) (UniProt P41968); test: cell-based or functional assay
hMC3-R (human), sequence (P41968 whole entry): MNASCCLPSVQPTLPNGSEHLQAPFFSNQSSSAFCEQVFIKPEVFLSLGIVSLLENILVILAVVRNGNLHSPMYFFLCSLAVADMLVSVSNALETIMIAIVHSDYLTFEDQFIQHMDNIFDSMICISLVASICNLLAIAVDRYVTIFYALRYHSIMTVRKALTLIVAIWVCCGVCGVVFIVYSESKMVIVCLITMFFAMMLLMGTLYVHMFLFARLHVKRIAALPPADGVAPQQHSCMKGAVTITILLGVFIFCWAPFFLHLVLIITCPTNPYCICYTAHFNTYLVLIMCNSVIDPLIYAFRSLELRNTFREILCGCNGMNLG

[5] = target: hMC5-R (human) (UniProt P33032); test: competition with [125I]-NDP-α-MSH, CHO-K1 membranes
[6] = target: hMC4-R (human) (UniProt P32245); test: as above
[7] = target: hMC1-R (human) (UniProt Q01726); test: as above
[8] = target: hMC3-R (human) (UniProt P41968); test: as above
[9] = target: hMC1-R (human) (UniProt Q01726); test: ratio Ki hMC1-R / Ki hMC4-R, same assay

In the case of Ac-[Nle]CH[d2Nal]RW[GABA]C-NH2 (disulfide 2-8) [Ac-Nle-c(Cys-His-D-2-Nal-Arg-Trp-Gaba-Cys)-NH2], the cAMP EC50 [1] is reported as 0.153 nM, the cAMP Kb [2] is reported as 0.782 nM and the cAMP EC50 [3] is reported as 0.231 nM. For the same binder, the cAMP Kb [4] was 18.4 nM, the Ki [5] was 1.11 nM and the Ki [6] was 0.375 nM. For the same binder, the Ki [7] was 0.393 nM, the Ki [8] was 1.86 nM and the Ki hMC1-R/MC4-R [9] was 1.05.

Ac-[Nle]CH[d2Nal]RW[Ahx]C-NH2 (disulfide 2-8) [Ac-Nle-c(Cys-His-D-2-Nal-Arg-Trp-Ahx-Cys)-NH2] gave a cAMP EC50 [1] of 0.126 nM, a cAMP Kb [2] of 0.967 nM and a cAMP EC50 [3] of 0.581 nM. The cAMP Kb [4] was 10.8 nM, the Ki [5] was 0.366 nM and the Ki [6] was 0.998 nM. For the same binder, the Ki [7] was 0.333 nM, the Ki [8] was 2.91 nM and the Ki hMC1-R/MC4-R [9] was 0.33.

B1: Ac-Nle-c(Cys-D-Ala-His-D-2-Nal-Arg-1-Nal-Cys)-NH2 (peptide)
peptide: Ac-[Nle]C[dA]H[d2Nal]R[1Nal]C-NH2
modifications: disulfide 2-8
SMILES: CCCC[C@H](NC(C)=O)C(=O)N[C@H]1CSSC[C@@H](C(N)=O)NC(=O)[C@H](Cc2cccc3ccccc23)NC(=O)[C@H](CCCNC(=N)N)NC(=O)[C@@H](Cc2ccc3ccccc3c2)NC(=O)[C@H](Cc2c[nH]cn2)NC(=O)[C@@H](C)NC1=O
Binder B1 has a cAMP EC50 [1] of 2840 nM, a cAMP Kb [2] of 53.6 nM and a cAMP EC50 [3] of 383 nM. It also gave a cAMP Kb [4] of 61.5 nM, a Ki [5] of 1660 nM and a Ki [6] of 3.07 nM. For the same binder, the Ki [7] was 114 nM, the Ki [8] was 63.9 nM and the Ki hMC1-R/MC4-R [9] was 37.1.

B2: D-Phe-c(Cys-His-D-Phe-Arg-Bip-β-Ala-D-Cys)-Thr-NH2 (peptide)
peptide: [dF]CH[dF]R[Bip][βAla][dC]T-NH2
modifications: disulfide 2-8; N-terminus assumed
SMILES: C[C@@H](O)[C@H](NC(=O)[C@H]1CSSC[C@H](NC(=O)[C@H](N)Cc2ccccc2)C(=O)N[C@@H](Cc2c[nH]cn2)C(=O)N[C@H](Cc2ccccc2)C(=O)N[C@@H](CCCNC(=N)N)C(=O)N[C@@H](Cc2ccc(-c3ccccc3)cc2)C(=O)NCCC(=O)N1)C(N)=O
In the case of B2, the Ki [5] is reported as 1130 nM, the Ki [6] is reported as 583 nM and the Ki [7] is reported as 5.8 nM. The Ki [8] was 3370 nM and the Ki hMC1-R/MC4-R [9] was 0.01.

B3: D-Phe-c(Cys-His-D-Phe-hArg-Bip-β-Ala-D-Cys)-Thr-NH2 (peptide)
peptide: [dF]CH[dF][hArg][Bip][βAla][dC]T-NH2
modifications: disulfide 2-8; N-terminus assumed
SMILES: C[C@@H](O)[C@H](NC(=O)[C@H]1CSSC[C@H](NC(=O)[C@H](N)Cc2ccccc2)C(=O)N[C@@H](Cc2c[nH]cn2)C(=O)N[C@H](Cc2ccccc2)C(=O)N[C@@H](CCCCNC(=N)N)C(=O)N[C@@H](Cc2ccc(-c3ccccc3)cc2)C(=O)NCCC(=O)N1)C(N)=O
B3 gave a Ki [5] of 1220 nM, a Ki [6] of 172 nM and a Ki [7] of 1.68 nM. The Ki [8] was 1260 nM and the Ki hMC1-R/MC4-R [9] was 0.01.

[dF]CH[d(Et)Tyr][hArg][Bip][βAla][dC]T-NH2 (disulfide 2-8) [D-Phe-c(Cys-His-D-(Et)Tyr-hArg-Bip-β-Ala-D-Cys)-Thr-NH2] was tested, and the Ki [5] was 38 nM, the Ki [6] was 36.9 nM and the Ki [7] was 0.128 nM. For the same binder, the Ki [8] was 85.6 nM and the Ki hMC1-R/MC4-R [9] was 0.

B4: Ac-Nle-c(Cys-D-Ala-His-D-Phe-Arg-Trp-D-Ala-Cys)-NH2 (peptide)
peptide: Ac-[Nle]C[dA]H[dF]RW[dA]C-NH2
modifications: disulfide 2-9
SMILES: CCCC[C@H](NC(C)=O)C(=O)N[C@H]1CSSC[C@@H](C(N)=O)NC(=O)[C@@H](C)NC(=O)[C@H](Cc2c[nH]c3ccccc23)NC(=O)[C@H](CCCNC(=N)N)NC(=O)[C@@H](Cc2ccccc2)NC(=O)[C@H](Cc2c[nH]cn2)NC(=O)[C@@H](C)NC1=O
In the case of B4, the Ki [5] is reported as 4940 nM, the Ki [6] is reported as 48 nM and the Ki [7] is reported as 3.93 nM. The Ki [8] was 876 nM and the Ki hMC1-R/MC4-R [9] was 0.08.

B5: Ac-Nle-c(Pen-His-D-Phe-Arg-Trp-Gaba-Cys)-NH2 (peptide)
peptide: Ac-[Nle][Pen]H[dF]RW[GABA]C-NH2
modifications: disulfide 2-8
SMILES: CCCC[C@H](NC(C)=O)C(=O)N[C@@H]1C(=O)N[C@@H](Cc2c[nH]cn2)C(=O)N[C@H](Cc2ccccc2)C(=O)N[C@@H](CCCNC(=N)N)C(=O)N[C@@H](Cc2c[nH]c3ccccc23)C(=O)NCCCC(=O)N[C@H](C(N)=O)CSSC1(C)C
Work on B5 yielded a Ki [5] of 2.56 nM, a Ki [6] of 5.89 nM and a Ki [7] of 0.537 nM. The Ki [8] was 86.1 nM and the Ki hMC1-R/MC4-R [9] was 0.09.

B6: Ac-Nle-c(Cys-D-Ala-His-D-2-Nal-Arg-2-Nal-Cys)-NH2 (peptide)
peptide: Ac-[Nle]C[dA]H[d2Nal]R[2Nal]C-NH2
modifications: disulfide 2-8
SMILES: CCCC[C@H](NC(C)=O)C(=O)N[C@H]1CSSC[C@@H](C(N)=O)NC(=O)[C@H](Cc2ccc3ccccc3c2)NC(=O)[C@H](CCCNC(=N)N)NC(=O)[C@@H](Cc2ccc3ccccc3c2)NC(=O)[C@H](Cc2c[nH]cn2)NC(=O)[C@@H](C)NC1=O
B6 gave a Ki [5] of 94.6 nM, a Ki [6] of 2.53 nM and a Ki [7] of 32.5 nM. For the same binder, the Ki [8] was 5.85 nM and the Ki hMC1-R/MC4-R [9] was 12.8.
